From IntAct's records for PubMed 29039417

B1: BBSome complex member BBS4 (Homo sapiens), Q96RK4 (parent)
chain: MAEERVATRTQFPVSTESQKPRQKKAPEFPILEKQNWLIHLHYIRKDYEACKAVIKEQLQETQGLCEYAIYVQALIFRLEGNIQESLELFQTCAVLSPQSADNLKQVARSLFLLGKHKAAIEVYNEAAKLNQKDWEISHNLGVCYIYLKQFNKAQDQLHNALNLNRHDLTYIMLGKIHLLEGDLDKAIEVYKKAVEFSPENTELLTTLGLLYLQLGIYQKAFEHLGNALTYDPTNYKAILAAGSMMQTHGDFDVALTKYRVVACAVPESPPLWNNIGMCFFGKKKYVAAISCLKRANYLAPFDWKILYNLGLVHLTMQQYASAFHFLSAAINFQPKMGELYMLLAVALTNLEDIENAKRAYAEAVHLDKCNPLVNLNYAVLLYNQGEKKNALAQYQEMEKKVSLLKDNSSLEFDSEMVEMAQKLGAALQVGEALVWTKPVKDPKSKHQTTSTSKPASFQQPLGSNQALGQAMSSAAAYRTLPSGAGGTSQFTKPPSLPLEPEPAVESSPTETSEQIREK
partner: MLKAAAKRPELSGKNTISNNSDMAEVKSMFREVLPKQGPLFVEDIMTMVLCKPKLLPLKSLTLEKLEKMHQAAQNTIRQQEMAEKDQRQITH

Variants of: B1
Details: with bbip1_human BBIP1, A8MTZ0

Variant	effect of a mutation on the interaction
T510E	with no effect
A330K	with no effect
A330F	disrupting interaction strength
T449E	with no effect
S457A	with no effect
A471K	with no effect
M337E	with no effect
S403A	with no effect
L381E	with no effect
E419A	with no effect
G431E	with no effect
G431K	with no effect
T492E	with no effect
T492K	with no effect
T492A	with no effect
N408A	with no effect
L299E	with no effect
R479A	with no effect
N350E	with no effect
N350D	disrupting interaction strength
N275A	with no effect
N275K	with no effect

Variant	effect of a mutation on the interaction
L424S	disrupting interaction strength
L424A	disrupting interaction strength
W273K	with no effect
L307P	disrupting interaction strength
Q422E	with no effect
L392E	with no effect
L392K	with no effect
N371K	with no effect
L310A	with no effect
H447A	with no effect
H447E	with no effect
Y478E	with no effect
Y478A	with no effect
P455K	with no effect
A504K	with no effect
W304R	disrupting interaction strength
L272E	with no effect
K294E	with no effect
L468A	with no effect
V313A	with no effect
Q319E	with no effect
G338A	with no effect

Variant	effect of a mutation on the interaction
Y383K	with no effect
Y383A	with no effect
S410K	with no effect
D353E	with no effect
K406A	with no effect
P270A	with no effect
S496E	with no effect
A364T	disrupting interaction strength
K305A	with no effect
N384K	with no effect
N384E	with no effect
L327R	disrupting interaction strength
L327H	disrupting interaction strength
E412K	with no effect
T349E	with no effect
L382A	with no effect
S415E	with no effect
A321E	with no effect
Q334E	with no effect
Q334K	with no effect
Q334D	disrupting interaction strength
C279K	with no effect

Variant	effect of a mutation on the interaction
V346A	disrupting interaction strength
V346K	with no effect
A379K	with no effect
A379V	disrupting interaction strength
H325A	with no effect
S464E	with no effect
S464K	with no effect
P443A	with no effect
M278K	with no effect
Q490K	with no effect
Y378K	with no effect
S453E	with no effect
I516K	with no effect
Y308E	with no effect
F326L	disrupting interaction strength
G484A	with no effect
V505E	with no effect
S269A	with no effect
N274K	with no effect
N274A	with no effect
T450K	with no effect
S507E	with no effect
